For seven substances, stoichiometry N and Km results are on record in article PMC8126724, “Infant-Associated Bifidobacterial β-Galactosidases and Their Ability to Synthesize Galacto-Oligosaccharides” (Frontiers in Microbiology, 2021).

The target in data set [1] is BgaB β-galactosidase (Bbr_0529) (B. breve UCC2003). The experiment in a line: SEC-MALS; Superose 6 10/300 G/L, 50 mM Tris-HCl, 150 mM NaCl, pH 7.5, 0.5 mL/min; dual-angle light scattering (RALS/LALS) and refractometer (OmniSec REVEAL); protein concentrations in Supplementary Table 1; native mass compared with the calculated monomer mass (with His-tag).
For data set [2], the target named is BgaC β-galactosidase (B216_08266) (B. bifidum LMG 13195). The data set is described as above.
For data set [3], the target named is BgaA β-galactosidase (Bbr_0010) (B. breve UCC2003). Described as above.
In data set [4] the target is BgaG β-galactosidase (Blon_2016) (B. longum subsp. infantis ATCC 15697). The description is as above.
Data set [5] addresses BgaE β-galactosidase (B8809_0611) (B. longum subsp. longum NCIMB 8809). The data set is described as above.
Data set [6] deals with BgaD β-galactosidase (B8809_0415) (B. longum subsp. longum NCIMB 8809). Described as above.
The subject of data set [7] is O=[N+]([O-])c1ccccc1O[C@@H]1O[C@H](CO)[C@H](O)[C@H](O)[C@H]1O. In words: o-nitrophenol release, A420. The following applies: 0.1 M sodium acetate pH 6.5, 40 °C, unit mM, not in table. The class given is biochemical, Bifidobacterium longum subsp. longum. The text has this: o-nitrophenol release, A420 on BgaF

As a reminder, the stoichiometry N is the number of molecules, sites or subunits per partner or assembly. For the substance “BgaB β-galactosidase (Bbr_0529) (enzyme)”, the stoichiometry N in data set [1] is 3.
“BgaC β-galactosidase (B216_08266) (enzyme)”: the stoichiometry N in data set [2] is 3.
For the substance “BgaA β-galactosidase (Bbr_0010) (enzyme)”, in data set [3], the stoichiometry N was 2.
Consider “BgaG β-galactosidase (Blon_2016) (enzyme)”, for which the stoichiometry N in data set [4] is 3.
Regarding “BgaE β-galactosidase (B8809_0611) (enzyme)”, the stoichiometry N in data set [5] is 4.
On to “BgaD β-galactosidase (B8809_0415) (enzyme)”, for which the stoichiometry N in data set [6] is 3.
As usually defined, the Km is the concentration of substrate that gives half-maximal velocity. As to “BgaF (Bifidobacterium longum subsp. longum)”, the Km in data set [7] is given as 5.178 mM.
